Data: publication PMC10663500, “High-throughput analysis system of interaction kinetics for data-driven antibody design” (Scientific Reports, 2023)

B1: toripalimab Fab L.T36Y (Fab, V domains shown)
VH: QGQLVQSGAEVKKPGASVKVSCKASGYTFTDYEMHWVRQAPIHGLEWIGVIESETGGTAYNQKFKGRVTITADKSTSTAYMELSSLRSEDTAVYYCAREGITTVATTYYWYFDVWGQGTTVTVSS
VL: DVVMTQSPLSLPVTLGQPASISCRSSQSIVHSNGNYYLEWYLQKPGQSPQLLIYKVSNRFSGVPDRFSGSGSGTDFTLKISRVEAEDVGVYYCFQGSHVPLTFGQGTKLEIK
notes: as the heavy chain of Sm3; light chain of Sm3 with this change; numbers count from the chain's first residue; source: Brevibacillus, culture supernatant (ammonium sulfate precipitate); not shown: 6xHis, C-terminal, kept; 6xHN, C-terminal, kept
B2: toripalimab Fab L.N33Y (Fab, V domains shown)
VH: QGQLVQSGAEVKKPGASVKVSCKASGYTFTDYEMHWVRQAPIHGLEWIGVIESETGGTAYNQKFKGRVTITADKSTSTAYMELSSLRSEDTAVYYCAREGITTVATTYYWYFDVWGQGTTVTVSS
VL: DVVMTQSPLSLPVTLGQPASISCRSSQSIVHSYGNTYLEWYLQKPGQSPQLLIYKVSNRFSGVPDRFSGSGSGTDFTLKISRVEAEDVGVYYCFQGSHVPLTFGQGTKLEIK
notes: as for B1
B3: toripalimab Fab L.S32A (Fab, V domains shown)
VH: QGQLVQSGAEVKKPGASVKVSCKASGYTFTDYEMHWVRQAPIHGLEWIGVIESETGGTAYNQKFKGRVTITADKSTSTAYMELSSLRSEDTAVYYCAREGITTVATTYYWYFDVWGQGTTVTVSS
VL: DVVMTQSPLSLPVTLGQPASISCRSSQSIVHANGNTYLEWYLQKPGQSPQLLIYKVSNRFSGVPDRFSGSGSGTDFTLKISRVEAEDVGVYYCFQGSHVPLTFGQGTKLEIK
notes: as for B1
B4: toripalimab Fab H.V50A (Fab, V domains shown)
VH: QGQLVQSGAEVKKPGASVKVSCKASGYTFTDYEMHWVRQAPIHGLEWIGAIESETGGTAYNQKFKGRVTITADKSTSTAYMELSSLRSEDTAVYYCAREGITTVATTYYWYFDVWGQGTTVTVSS
VL: DVVMTQSPLSLPVTLGQPASISCRSSQSIVHSNGNTYLEWYLQKPGQSPQLLIYKVSNRFSGVPDRFSGSGSGTDFTLKISRVEAEDVGVYYCFQGSHVPLTFGQGTKLEIK
notes: heavy chain of Sm3 with this change; numbers count from the chain's first residue; as the light chain of Sm3; source: Brevibacillus, culture supernatant (ammonium sulfate precipitate); not shown: 6xHis, C-terminal, kept; 6xHN, C-terminal, kept
B5: toripalimab Fab L.T36A (Fab, V domains shown)
VH: QGQLVQSGAEVKKPGASVKVSCKASGYTFTDYEMHWVRQAPIHGLEWIGVIESETGGTAYNQKFKGRVTITADKSTSTAYMELSSLRSEDTAVYYCAREGITTVATTYYWYFDVWGQGTTVTVSS
VL: DVVMTQSPLSLPVTLGQPASISCRSSQSIVHSNGNAYLEWYLQKPGQSPQLLIYKVSNRFSGVPDRFSGSGSGTDFTLKISRVEAEDVGVYYCFQGSHVPLTFGQGTKLEIK
notes: as for B1
B6: toripalimab Fab L.K55A (Fab, V domains shown)
VH: QGQLVQSGAEVKKPGASVKVSCKASGYTFTDYEMHWVRQAPIHGLEWIGVIESETGGTAYNQKFKGRVTITADKSTSTAYMELSSLRSEDTAVYYCAREGITTVATTYYWYFDVWGQGTTVTVSS
VL: DVVMTQSPLSLPVTLGQPASISCRSSQSIVHSNGNTYLEWYLQKPGQSPQLLIYAVSNRFSGVPDRFSGSGSGTDFTLKISRVEAEDVGVYYCFQGSHVPLTFGQGTKLEIK
notes: as for B1
B7: toripalimab Fab L.S32Y (Fab, V domains shown)
VH: QGQLVQSGAEVKKPGASVKVSCKASGYTFTDYEMHWVRQAPIHGLEWIGVIESETGGTAYNQKFKGRVTITADKSTSTAYMELSSLRSEDTAVYYCAREGITTVATTYYWYFDVWGQGTTVTVSS
VL: DVVMTQSPLSLPVTLGQPASISCRSSQSIVHYNGNTYLEWYLQKPGQSPQLLIYKVSNRFSGVPDRFSGSGSGTDFTLKISRVEAEDVGVYYCFQGSHVPLTFGQGTKLEIK
notes: as for B1
B8: toripalimab Fab L.G34A (Fab, V domains shown)
VH: QGQLVQSGAEVKKPGASVKVSCKASGYTFTDYEMHWVRQAPIHGLEWIGVIESETGGTAYNQKFKGRVTITADKSTSTAYMELSSLRSEDTAVYYCAREGITTVATTYYWYFDVWGQGTTVTVSS
VL: DVVMTQSPLSLPVTLGQPASISCRSSQSIVHSNANTYLEWYLQKPGQSPQLLIYKVSNRFSGVPDRFSGSGSGTDFTLKISRVEAEDVGVYYCFQGSHVPLTFGQGTKLEIK
notes: as for B1

Assays:
[1] = target: T1, human programmed cell death protein 1 (hPD-1) C93S (aa 24-167) (Homo sapiens, UniProt Q15116, C93S); test: SPR; Carterra LSA; Fab from the ammonium sulfate precipitate of the culture supernatant immobilised on a NiHC200M chip; hPD-1 (1-1024 nM) or mPD-1-Fc (4-1024 nM) as analyte, fourfold dilution series, no regeneration; HBS-EP pH 7.4, 25 °C; medians over the spots of a construct, KD = koff/kon; details: one partner purified
T1 construct: made as a fusion with a TEV site and human Fc; the Fc was cut off with TEV protease; source: Expi293F, purified (Protein A, TEV cleavage of Fc, SEC; monomer fractions); not shown: Fc (human), C-terminal, cleaved
T1 sequence (Q15116 24-167 C93S): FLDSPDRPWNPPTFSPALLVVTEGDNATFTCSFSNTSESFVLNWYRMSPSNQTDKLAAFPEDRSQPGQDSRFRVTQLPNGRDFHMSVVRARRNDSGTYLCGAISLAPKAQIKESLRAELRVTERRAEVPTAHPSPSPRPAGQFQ
Outline: (§1)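 Human PD-1 (1–1024 nM) or mouse PD-1-Fc (4–1024 nM), in fourfold series, was flowed without regeneration over Fabs captured in duplicate on a NiHC200M chip (Carterra LSA, 25 °C), using 10 min association and 5 min dissociation. The Fabs had been recovered from Brevibacillus culture supernatants by ammonium sulfate precipitation and redissolved in HBS-EP. For binding constants, KD was defined as koff/kon from per-construct medians, with rates fitted by the kdka model under slow- or fast-dissociation settings (best fit) and unconfirmed binders set to kon 10^3 […] and koff 10^−2 s^−1.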

[2] = target: T2, mouse programmed cell death protein 1 Fc fusion protein (mPD-1-Fc), mPD-1 C60S (aa 25-167) (Mus musculus, UniProt Q02242, stabilised); test: as above; details: one partner purified
T2 construct: not cleaved; source: Expi293F, purified (Protein A, SEC; dimeric fraction); not shown: Fc (human), C-terminal, kept
Outline: as §1

| Binder | Kd [1] | koff [1] | kon [1] | Kd [2] | koff [2] | kon [2] |
| --- | --- | --- | --- | --- | --- | --- |
| B1 | < 0.372 nM | < 1e-05 s⁻¹ | 26900 M⁻¹ s⁻¹ | 164 nM | 0.00757 s⁻¹ | 46100 M⁻¹ s⁻¹ |
| B2 | < 0.585 nM | < 1e-05 s⁻¹ | 17100 M⁻¹ s⁻¹ | 192 nM | 0.00979 s⁻¹ | 50900 M⁻¹ s⁻¹ |
| B3 | < 1.35 nM | < 1e-05 s⁻¹ | 7410 M⁻¹ s⁻¹ | 185 nM | 0.0077 s⁻¹ | 41600 M⁻¹ s⁻¹ |
| B4 | 1.66 nM | 2.65e-05 s⁻¹ | 15900 M⁻¹ s⁻¹ | 728 nM | 0.0237 s⁻¹ | 32500 M⁻¹ s⁻¹ |
| B5 | < 1.51 nM | < 1e-05 s⁻¹ | 6610 M⁻¹ s⁻¹ | 331 nM | 0.0155 s⁻¹ | 46700 M⁻¹ s⁻¹ |
| B6 | < 1.18 nM | < 1e-05 s⁻¹ | 8480 M⁻¹ s⁻¹ | 182 nM | 0.00821 s⁻¹ | 45200 M⁻¹ s⁻¹ |
| B7 | < 0.678 nM | < 1e-05 s⁻¹ | 14800 M⁻¹ s⁻¹ | 95.6 nM | 0.00346 s⁻¹ | 36100 M⁻¹ s⁻¹ |
| B8 | 2.35 nM | 4.8e-05 s⁻¹ | 20500 M⁻¹ s⁻¹ | 202 nM | 0.00961 s⁻¹ | 47500 M⁻¹ s⁻¹ |
